Source: the DeepSol protein solubility set

Experiment: soluble on expression in E. coli; label from the status in PepcDB or PDB records

Question: With “MAKIDIIDNYETLLISVEEIRASLESLHAWLDKDIDWDSQCDWYDFISQHSSQIAILNLIMYRLDSLEVEHRSVIENTMKGK” as the sequence, how does the “soluble on expression in E. coli” value read?
Answer: not soluble

Question: For “MLNKEIKGALIVSCQALADEPLHSSFIMSKMALAAKQGGAKGIRANSVVDIRAIRKEVDLPIIGIIKRDYPDAEVYITATMREVDELMAVQPEIIALDATHSKRPNGETLATFFKRIKEKYPNQEWMADCSTLEEMIEAAELGFDYIGTTLVGYTPQSENQRIEQNDFELLREAKKHFTTPIIAEGMIDTPAKVQRVLELGTYSVVVGSVITRPQKITEKFVEATKIKQNQA”, which “soluble on expression in E. coli” value is on record?
Answer: not soluble

Question: With “MLKRLISIPTVAPQGDHYGEAAELLARELESLGFETVVERVPSEYQREKCRHASDNPRFIVYGRRGEGPALHFNGHYDVVPGGPGWSVTEPFKPVVKDGKLYGRGAIDMKGGIAAALGAFKALHLSGAWPQGLRVEAAFVPDEEIGGECGTGYLVNGMGVTPEYVVLPEPSGLEKPWHGHRGILWMKVRVKGRTAHASTPWHGRNAFLLASAIALDLQQALASMYAGRRSRHRIEPEESAKPTVSLGGEAGVTGGGKTNQVPGEFYFTVDRRLIPEETVSQARDELLGVLTWLSVKHGAEVEAEEVISAEPAINEPGELYEALREAASQSGRSIGEPVVCPGGLDMWYYTVKGSKALAYGPRGELAHAPDEHIDLGELRFLVETFARLPITLAVALQRRT” as the sequence, how does the “soluble on expression in E. coli” value read?
Answer: soluble

Question: With “MADDFAYLNARVRVRRGTLLKESFFQEALDLSFADFLRLLSETVYGGELAGQGLPDVDRAVLRTQAKLVGDLPRLVTGEAREAVRLLLLRNDLHNLQALLRAKATGRPFEEVLLLPGTLREEVWRQAYEAQDPAGMAQVLAVPGHPLARALRAVLRETQDLARVEALLAKRFFEDVAKAAKGLDQPALRDYLALEVDAENLRTAFKLQGSGLAPDAFFLKGGRFVDRVRFARLMEGDYAVLDELSGTPFSGLSGVRDLKALERGLRCVLLKEAKKGVQDPLGVGLVLAYVKEREWEAVRLRLLARRAYFGLPRAQVEEEVVCP” as the sequence, how does the “soluble on expression in E. coli” value read?
Answer: soluble

Question: Which “soluble on expression in E. coli” value does the source give for “MSLRAALADLHASIVSARKAPFSDRPIEGSLERCLAALAPLCRRARITRLGDLTGLDRLGLPVMQAVRPAALSEVTSLGRGLSRAEAAVGALMESLERYFAEAIPAERTFLATADQLEVTDGLFENLVVPEWRGKWRQRTIAWIEGIDVVGGSAYPVPLELVHTRYSEPQPAHDGAFLRTTTGLACHTSRHGAFLHGLWECLERDAIARAFGTHGFFDRWRIAPCGLGDGVDHIRSLAGARGISFALWLAPSPAAVPVVWCQTVEAGHGEPILALPTEGYAAGPSIEMAAASAMLEALSARAGAISGARDDQTREHYRRSTDAAVAKARELVLADAASKPGEATYATIPDPGTLLDRVVEAGLGPVLAIPVGVDEEAGVHCVRTVLPGASPFFVLREGHHHHHH” here?
Answer: not soluble

Question: With “MGHHHHHHSHMGFYLGITALKSIGNNKNNNIDNENNHQAKILTFPVSFTCRTFLPARGDILQGTVKKVLWNGAFIRSGPLRYAYLSLLKMPHYHYVHSPLSEDEKPHFQKDDLSKIAVGVVVRFQVLAVRFKERPHKRRNDYYVLATLEGNGSFGP” as the sequence, how does the “soluble on expression in E. coli” value read?
Answer: soluble

Question: For “GSHMAEPQRHKILCVCCKCDGRIELTVESSAEDLRTLQQLFLSTLSFVCPWCATNQ”, which “soluble on expression in E. coli” value is on record?
Answer: soluble

Question: For “MGSDKIHHHHHHMSEYIQLYRYLNSRLPGVERKRLVLLTGARQTGKTTLAKAKYADLRYVNLDAPENREAVRTIASAFWARDIGPAVLDEAQKEPVVFDKVKYAYDDGALSFSVLLGSSQILLLKKIRETLAGRISIYELWPLLMSEICNGSAAPPSSPPLVDCLFSDMTCDDFFGDKPGILLDMEDACRRRAEEHLLQWGGMPSLLPLNTEERRQWLKDYGYTYLERDMADLARLEDLMPFRKFQRLAALRSGCLLNYSELARDAAISVDTARRYLEYLRLSYQTVFLPPYHVNLTSAVVKTPKVYWLDVGLLRQLSGMQGPTTGEIYETMVVGELMKWMKTAGREGDVFFYRTRSGLEVDVLLETPSGVVGMEIKSRRVLAARDLTGLKEIALALGPRWRGGLVIYQGDELKRIGTPQLWAVPSRRLFTGIE”, which “soluble on expression in E. coli” value is on record?
Answer: not soluble

Question: Which “soluble on expression in E. coli” value does the source give for “MAHHHHHHMQFHQFLCRFRNQVLLKGAFWSCPHQFRLGLHDRWKVNLVKVHIGVLGFFFKTHGESVVSGAKGDNLHGCRNGGVSALKVTNAFLNKIRNDQHTQIVPTIYQRGTPRQLSHEMSKIRILKVPMEHRRAFAHDTVIVSTLHRSVKTDVRGDTHRGTVLLHWKMHCLR” here?
Answer: not soluble

Question: With “SRNICYDAFVSYSERDAYWVENLMVQELENFNPPFKLCLHKRDFIHGKWIIDNIIDSIEKSHKTVFVLSENFVKSEWCKYELDFSHFRLFDENNDAAILILLEPIEKKAIPQRFCKLRKIMNTKTYLEWPMDEAQREGFWVNLRAAIKS” as the sequence, how does the “soluble on expression in E. coli” value read?
Answer: soluble

Question: For “MSILMPVRNEERFLPAALASLCRQSLTAWELIVVDDGSTDDTPELLRVAAARDRRVRVFNNAGAGLVDALNYGLAHCRAELVARMDGDDISHPQRLERQAAALDADPGLGLVATRFRHFPRHSVGLGMRAYEEWQNGLLTHEEIMRDRFVESPVVHPSVMARRQALTDAGGYRKTGWAEDYDLWLRLAAGGVRFTRLPEVLFFWRERPERATRTMGEYAADAFRACKIHHLCQGFLLGVDNVTLAGAGLEGRAWQRALAREGVRVGRWLDVDPRKQGRILHGAPVTAPDDVRAGAEKILVTVGTRGARDGVRAWARRAGLREGEDFVCVTLEHHHHHH”, which “soluble on expression in E. coli” value is on record?
Answer: not soluble

Question: For “MAHHHHHHMSSCQNTHAARLHSATSAYAGEPESWMWTPARENGDGWRSPGTGTATSATAEAALHFVWGRVLSVYAVMPLNQTWNVQGVVDAVLPPLPANGGTTAAPSPPAAPAMAPGFQLLVMAAALLSPPATATTAVAAAPSMASLHKLSLMSPADAEPVDVGELSGAFWLAALRRAWPLFQACGVSHEPMTQGSNTNITEEAASSLGGVAVGMAGSGVNLEDLRTIVLSLFLRFADDSAVASAMAAADGDGAKLCGSAIRWAEAMCSDAPATYAQ”, which “soluble on expression in E. coli” value is on record?
Answer: not soluble

Question: For “MQKQLLLGVEAIAQAALDAGISGVYAYPGTPSTEITEHIQNSRMAKERNVHREWAANEKTAMESALGMSYAGKRALVCMKHVGMNVAADCFMNAAITGANGGMVIVAADDPSMHSSQNEQDSRVYGQFAMIPVMEPSNQQEAYDMTRLAFDLSERLGTPVMMRITTRLAHSRAGVVQTEPIGENELHLP”, which “soluble on expression in E. coli” value is on record?
Answer: not soluble

Question: Which “soluble on expression in E. coli” value does the source give for “MSALSTLKVTFIVSPPSFPCFHTPGPRRKAAPFRFTGQSAYPLWYHGGMAEAFCPVYAALNLLQEKWTLHIIRALLEGPKGFNELSRAVGGVNPATLSQRLDQLVRLGVVEKRVESYMPPRTRYSLTPAGEELEEVVQAIERWARRHLKAPDPAR” here?
Answer: soluble

Question: With “MDDSMDYPDRDGDDLDQFQGTARSQVVQNQPHDEEVNLSESESFAGADEPPAAPRDASLIESHDMDEGPAAPARTLSPTGYEAGKHAPGGIANSDEAPPGAYNAQEYKHLNVGEDVRELFSYIGRYKPQTVELDTRIKPFIPDYIPAVGGIDEFIKVPRPDTKPDYLGLKVLDEPAAKQSDPTVLTLQLRQLSKEAPGAKADMVGRLEHTDENKAKKIQQWIASINDIHKAKPAATVNYSKRMPEIEALMQEWPPEVETFLKTMHMPSGDVELDIKTYARLVCTLLDIPVYDDPVESLHVLFTLYLEFKNNPIFRQHMEMENKLDGMSGGGGGMMGGGADVLGL” as the sequence, how does the “soluble on expression in E. coli” value read?
Answer: not soluble

Question: For “GMDIMLNTADISAAAILLPVEGAQLSELRQIPAEGGPVLHMLRLDSPQFSQFGEIYFSEVLPRRVKAWKRHSLMTQLFAVPVGCIHVVLYDGREKSPTSGRLAQVTLGRPDNYRLLRIPPQVWYGFAATGDTPALVANCTDIPHRQGESERAPQDAPFIPFSWAGADLSGTPVM”, which “soluble on expression in E. coli” value is on record?
Answer: soluble

Question: Which “soluble on expression in E. coli” value does the source give for “METKKIAGVLVTMVAPFENHMANGGEKLFGNASSIKRRPDGRVYVSGQMQRHVLFSAIDRLNHLDKAKGTTFVSNGDGITNLIEIDLRADLGGFMHTNKGDYSDRRIAPLSVTPATALDTSSVGRDLLVRIRFDKSSDAKNQALATREYSEQDKMNMNFFLDITSVGVSKSFVYKDGLNLGTKYFKHITDDEKKRRVKLFLEATRIMNDYANQARNAVCGEPEKVLIVFDDRLSRKACRYYTVGEKEQANIIKELDQYQVKYFVGDDASDYSVADAYRDAMNYLDKATLVDFAEGEEIMTFAEAFECKEKEPQEKKSKKGKDKATSAQNLFAEQQDDQ” here?
Answer: not soluble
